Tests used:
TF10 = biological target: T1, TF10; assay: SEC (A230) of A---, -BCD and ABCD and negative-stain EM; components named in the legend of FIG. 17A, which paragraph 104 ties to FIG. 4A
T1 construct: Trivalent connector
T1 chain: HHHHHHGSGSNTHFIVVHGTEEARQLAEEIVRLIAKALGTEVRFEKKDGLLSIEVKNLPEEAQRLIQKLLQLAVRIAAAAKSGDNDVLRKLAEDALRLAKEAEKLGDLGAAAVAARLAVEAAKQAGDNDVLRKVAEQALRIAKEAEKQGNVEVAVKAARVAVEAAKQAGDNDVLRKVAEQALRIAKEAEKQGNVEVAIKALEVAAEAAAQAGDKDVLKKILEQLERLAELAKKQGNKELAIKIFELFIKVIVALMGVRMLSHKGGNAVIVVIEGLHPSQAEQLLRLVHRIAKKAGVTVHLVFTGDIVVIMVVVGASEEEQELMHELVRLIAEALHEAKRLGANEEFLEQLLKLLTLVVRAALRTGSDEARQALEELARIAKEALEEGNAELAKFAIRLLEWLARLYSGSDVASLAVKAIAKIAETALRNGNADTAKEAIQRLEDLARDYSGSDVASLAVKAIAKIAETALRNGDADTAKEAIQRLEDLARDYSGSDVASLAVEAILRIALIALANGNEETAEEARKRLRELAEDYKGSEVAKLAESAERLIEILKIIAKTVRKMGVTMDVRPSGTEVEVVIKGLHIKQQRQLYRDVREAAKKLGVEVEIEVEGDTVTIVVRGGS
Experimental: Complexes and individual components were diluted in 20 mM Tris pH 8.0, 100 mM NaCl. After o/n equilibration of the mixtures at room temperature or 4 degrees C., 500 ul of sample was injected onto a Superdex™ 200 10/300 increase GL (dimers, linear assemblies) or Superose™ 6 increase 10/300 GL (symmetric assemblies) (all columns from GE healthcare) using the absorbance at 230 nm or 473 nm (for GFP tagged components) as read-out. Dimers were mixed at monomer concentrations of 5 μM or higher. Trimer and ABCD tetramer mixtures contained 5 μM of the bivalent connector, and 7.5 μM of each terminal cap (lower absolute concentrations with the same ratios were used for some trimers). ABCA tetramer mixtures contained 5 μM per bivalent connector and 15 μM terminal cap. The hexamer mixture contained 3 μM of components C and D, 3.6 μM of B and E, and 4.4 μM of A and F. The branched assembly shown in FIG. 4A contained 2.8 μM of the trivalent connector and 4 μM of each cap. For the exchange experiment shown in FIG. 5A, the ABC trimer was preincubated at concentrations of 6 μM B and 9 μM each of A and C. C′ was then added to reach a final concentration of 2 μM B, 3 μM each of A and C, and 6 μM C′.
SEC peak fractions were concentrated prior to negative stain EM screening. Samples were then immediately diluted 5 to 150 times in TBS buffer (25 mM Tris pH 8.0, 25 mM NaCl) depending on sample concentration. A final volume of 5 μL was applied to negatively glow discharged, carbon-coated 400-mesh copper grids (01844-F, TedPella, Inc.), then washed with Milli-Q™ Water and stained using 0.75% uranyl formate as previously described (53). Air-dried grids were imaged on a FEI Talos L120C TEM (FEI Thermo Scientific, Hillsboro, OR) equipped with a 4K×4K Gatan OneView™ camera at a magnification of 57,000× and pixel size of 2.51. Micrographs were imported into CisTEM software or cryoSPARC™ software and a circular blob picker was used to select particles which were then subjected to 2D classification. […]

TF3 = biological target: T2, TF3; assay: SEC of the trivalent connector TF3, its three caps and the full mixture, with SDS-PAGE of the fractions; components named in the legend
T2 construct: Trivalent connector
T2 chain: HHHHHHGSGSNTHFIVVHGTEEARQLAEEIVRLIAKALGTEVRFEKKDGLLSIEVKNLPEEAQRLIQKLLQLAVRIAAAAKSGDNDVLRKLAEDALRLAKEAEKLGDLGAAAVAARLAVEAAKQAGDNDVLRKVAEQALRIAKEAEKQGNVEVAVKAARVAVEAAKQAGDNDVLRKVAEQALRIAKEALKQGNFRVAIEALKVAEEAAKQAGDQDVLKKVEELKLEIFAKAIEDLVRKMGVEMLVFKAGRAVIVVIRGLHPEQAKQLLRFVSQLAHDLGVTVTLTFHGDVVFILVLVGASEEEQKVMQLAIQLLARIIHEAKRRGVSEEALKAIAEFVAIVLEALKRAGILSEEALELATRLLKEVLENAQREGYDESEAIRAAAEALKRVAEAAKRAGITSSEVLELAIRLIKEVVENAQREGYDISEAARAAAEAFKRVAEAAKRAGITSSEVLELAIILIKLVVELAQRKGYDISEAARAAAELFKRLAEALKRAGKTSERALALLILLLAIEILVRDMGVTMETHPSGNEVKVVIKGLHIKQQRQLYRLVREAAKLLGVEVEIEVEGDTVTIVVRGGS

DFB0 = biological target: T3, DFB0; assay: SEC of mixed components; trimer listed in Table 6
T3 construct: Bivalent connector
T3 chain: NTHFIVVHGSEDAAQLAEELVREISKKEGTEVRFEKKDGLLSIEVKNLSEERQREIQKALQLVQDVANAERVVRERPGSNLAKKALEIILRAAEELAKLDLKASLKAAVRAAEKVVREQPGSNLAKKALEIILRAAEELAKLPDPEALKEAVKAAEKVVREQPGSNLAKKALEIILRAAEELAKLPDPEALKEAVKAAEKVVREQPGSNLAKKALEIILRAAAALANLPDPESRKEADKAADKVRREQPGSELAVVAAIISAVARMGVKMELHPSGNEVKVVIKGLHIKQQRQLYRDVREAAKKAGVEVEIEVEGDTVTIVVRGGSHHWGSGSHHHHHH

DFB-1 = biological target: T4, DFB-1; assay: SEC of mixed components; trimer listed in Table 6
T4 construct: Bivalent connector
T4 chain: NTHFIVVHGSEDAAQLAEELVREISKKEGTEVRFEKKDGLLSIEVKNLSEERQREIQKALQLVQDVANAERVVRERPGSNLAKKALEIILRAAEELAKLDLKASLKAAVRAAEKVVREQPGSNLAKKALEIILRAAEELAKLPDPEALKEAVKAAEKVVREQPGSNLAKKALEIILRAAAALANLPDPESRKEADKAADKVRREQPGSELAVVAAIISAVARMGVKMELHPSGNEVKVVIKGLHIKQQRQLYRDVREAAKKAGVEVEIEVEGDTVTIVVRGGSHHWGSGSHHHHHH

Measured: binding result

B1: 101B62 (designed binder)
chain: HHHHHHGSGLNDIFEAQKIEWHEAENLYFQSGSNDEKRKRAEKALQRAQEAEKKGDVEEAVRAAQEAVRAAKESGDNDVLRKVAEQALRIAKEAEKQGNVEVAVKAARVAVEAAKQAGDNDVLRKVAEQALRIAKEALKQGNVDVAAKAAQVAEEAAKQAGDQDVLRKVKEVQIEIVLAAIELTVRKMGVTMETHRSGREVKVVIKGLHESQQEQLLEDVLRIAELAGVRVRIRFKGDTVTIVVRG
notes: also called LHD101B62
binds: TF10 | TF3 | DFB0 | DFB-1

B2: 274A53 (designed binder)
chain: TTNFHLINGSEEARQLIEKAVRAISKKEGTEVHFEKSDGTLEIRVKNLHEKREREIKKVIELILEVAAAERIVRERPGSNLAKKALEIILRAAEELAKADVDAALEAAVRAAEKVVREQPGSNLAKKALEIILRAAEELAKLPDPEALKEAVKAAEKVVREQPGSELAKKALEIIERAAEELKKSPDPEAQKEAKKAEQKVREESGSHHWGSGLNDIFEAQKIEWHEGSHHHHHH
notes: also called LHD274A DHR53 stop; LHD274A53
binds: TF10 | TF3 | DFB0 | DFB-1

From patent US20240368233A1 (University of Washington, published 2024)
